Literature values, collected in US5189019A, “Antistasin derived anticoagulant protein” (Merck & Co., Inc., priority 1990, dated 1993).

Biological target: Factor Xa (Homo sapiens, UniProt P00742)
Conditions: Tuszynski et al. 1987; Nutt et al. 1988

Sequence of Factor Xa (P00742 235-488 limits assumed): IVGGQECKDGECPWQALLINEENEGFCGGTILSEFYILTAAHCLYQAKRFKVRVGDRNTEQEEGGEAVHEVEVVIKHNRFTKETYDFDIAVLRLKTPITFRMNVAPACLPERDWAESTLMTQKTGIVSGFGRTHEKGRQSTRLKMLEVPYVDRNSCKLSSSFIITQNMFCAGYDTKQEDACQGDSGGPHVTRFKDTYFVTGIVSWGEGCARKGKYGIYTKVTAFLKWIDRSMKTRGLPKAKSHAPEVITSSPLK
Sequence of Factor Xa (P00742 41-179 partner limits assumed): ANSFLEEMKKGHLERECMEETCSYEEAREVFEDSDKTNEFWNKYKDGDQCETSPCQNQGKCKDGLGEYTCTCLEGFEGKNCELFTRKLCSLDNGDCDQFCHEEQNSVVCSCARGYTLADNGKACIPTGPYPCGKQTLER

B1: Antistasin: 15 kDa cysteine rich protein found in the salivary gland of the Mexican leech, Haementeria officinalis (protein, UniProt P15358 18-136, looked up)
Antistasin: QGPFGPGCEEAGCPEGSACNIITDRCTCSGVRCRMHCPHGFQRSRYGCEFCKCRLEPMKATCDISECPEGMMCSRLTNKCDCKIDINCRKTCPNGLKRDKLGCEYCECRPKRKLIPRLS
Question: Which “inhibition of Factor Xa in the human blood coagulation cascade” value does the source give for B1 here?
Answer: potent inhibitor
